The values below come from patent US20170321220A1 (INDIANA UNIVERSITY RESEARCH AND TECHNOLOGY, published 2017).

Where two headings read alike, the source gives them in different places. Bounds are passed on as bounds.

The target in experiment [1] is P22 procapsid (PC) after removal of the Dec-binding sub-population (bacteriophage P22 (filing: P22 VLP from Salmonella typhimurium)) (UniProt P26747). The experiment can be described thus: SEC-MALS, particle molecular weight after incubation with DecWT; PC control row 22.8±0.7. On the technique in general: Size exclusion chromatography separates by hydrodynamic size, large species first.

Experiment [2] shares this target. Put plainly: SEC retention shift after incubation with DecWT; PC control row 0±0.001.
For experiment [3] the target is unchanged. Put plainly: SEC-MALS, number of Dec monomers calculated from the difference between bound and control particle molecular weight; PC control row 0±43.
Experiment [4] shares this target. Put plainly: SEC-QELS, particle radius of hydration after incubation with DecWT; PC control row 26.4±0.5.
Experiment [5] deals with T1, EX P22 VLP (expanded form of the bacteriophage P22 virus-like particle) (bacteriophage P22 (filing: P22 VLP from …, UniProt P26747 2-430)). Put plainly: SEC-QELS, particle radius of hydration with Dec bound; EX control row 28.4±0.7.
Experiment [6] addresses T1, EX P22 VLP (expanded form of the …). Put plainly: SPR, EX P22 immobilised, two-site global fit; site 2, column 'KD2 (nM)'. (In general: SPR reads the build-up and loss of mass on a sensor chip optically.)
Experiment [7] shares this target. The experiment can be described thus: SPR, EX P22 immobilised, two-site fit, low-affinity site.
The target is the same in experiment [8].
For experiment [9] the target is unchanged. The experiment can be described thus: SPR, EX P22 immobilised, two-site fit, tighter site.
The target is the same in experiment [10]. The experiment can be described thus: SEC retention shift of P22 upon Dec binding; EX control row 0±0.008.
The target is the same in experiment [11]. Put plainly: SEC-MALS, particle molecular weight with Dec bound; EX control row 20.5±0.2.
The target is the same in experiment [12]. The experiment can be described thus: SPR, EX P22 immobilised, two-site global fit; site 2, column 'Ka2 (M-1 s-1)'.
The target is the same in experiment [13]. The experiment can be described thus: SPR, single-site fit.
The target is the same in experiment [14]. This is another data set of the same source.
For experiment [15] the target is unchanged. Put plainly: SPR, EX P22 immobilised, two-site global fit; site 1, column 'Kd1 (s-1 x 10-4)'.
Experiment [16] shares this target. Put plainly: SPR, extended 4 h dissociation, two independent sites, weak site.
Experiment [17] has the same target. The experiment can be described thus: SPR, extended 4 h dissociation, two independent sites, tight site.
Experiment [18] has the same target. The experiment can be described thus: SPR, EX P22 immobilised, single-site fit of the low concentrations.
Experiment [19] shares this target. Put plainly: SPR, from the fitted parameters.
Experiment [20] has the same target. The experiment can be described thus: SPR, two-site fit with the tight-site kd fixed at the value of the 4 h dissociation.
For experiment [21] the target is unchanged. The experiment can be described thus: SPR, EX P22 immobilised, two-site fit, high-affinity site.

T1 sequence (P26747 2-430 limits assumed): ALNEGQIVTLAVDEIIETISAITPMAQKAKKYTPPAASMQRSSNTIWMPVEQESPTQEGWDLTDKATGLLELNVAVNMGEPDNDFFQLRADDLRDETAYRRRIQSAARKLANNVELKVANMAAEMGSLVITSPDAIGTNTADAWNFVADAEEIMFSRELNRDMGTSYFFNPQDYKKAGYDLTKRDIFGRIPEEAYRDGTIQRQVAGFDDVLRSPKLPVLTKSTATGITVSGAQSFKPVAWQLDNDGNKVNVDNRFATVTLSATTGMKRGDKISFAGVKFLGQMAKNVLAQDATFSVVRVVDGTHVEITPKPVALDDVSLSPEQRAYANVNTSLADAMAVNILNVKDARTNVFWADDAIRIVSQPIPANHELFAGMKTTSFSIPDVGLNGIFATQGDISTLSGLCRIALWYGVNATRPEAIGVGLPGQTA
Chain of P22 procapsid (PC) after removal of the Dec-binding sub-population (bacteriophage P22 (filing: P22 VLP from Salmonella typhimurium)) (P26747 2-430, chain 1 of 2): as the sequence (P26747 2-430 limits assumed) above
Chain of P22 procapsid (PC) after removal of the Dec-binding sub-population (bacteriophage P22 (filing: P22 VLP from Salmonella typhimurium)) (P26748 whole entry, chain 2 of 2, further chain): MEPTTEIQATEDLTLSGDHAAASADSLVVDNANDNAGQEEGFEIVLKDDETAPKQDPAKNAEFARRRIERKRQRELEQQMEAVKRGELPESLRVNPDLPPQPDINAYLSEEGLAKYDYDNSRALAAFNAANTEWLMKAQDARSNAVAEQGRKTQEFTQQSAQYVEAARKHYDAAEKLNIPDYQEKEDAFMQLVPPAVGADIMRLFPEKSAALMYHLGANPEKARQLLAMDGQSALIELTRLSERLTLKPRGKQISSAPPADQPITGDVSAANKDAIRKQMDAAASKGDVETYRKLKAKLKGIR

In [1], DecWT had an MW (MDa) of 23.2 MDa. Moreover, the retention shift in experiment [2] turned out to be 0.03 min. The Dec monomers in experiment [3] is 24 monomers. The molecule further showed a Rh (nm) in [4] of 26.6 nm.

B1: DecSelf (Dec fused at its C-terminus to the 21 amino acid CD47 mimic Self-peptide) (other)
chain: MGSSHHHHHHSQDPMANPNFTPSWPLYKDADGVYVSALPIKAIKYANDGSANAEFDGPYADQYMSAQTVAVFKPEVGGYLFRSQYGELLYMSKTAFEANYTSASGSVANAETADKLSTARTITLTGAVTGSASFDGSANVTIETTSGSELGNYTCEVTELTREGETIIELK
Broadly, the Kd is a measure of binding affinity in units of concentration. Low values mean higher affinity, high ones lower affinity. One may read the koff as the first-order rate constant of dissociation. A word on the kon: it is a measure of how fast the partners come together. B1: the “Rh (nm)” value in experiment [5] is 29.6 nm. The values for the Kd in experiment [6], in experiment [7] and in [9] were 146 nM, 146 nM and 18.3 nM, respectively. Moreover, the off-rate constant (koff) was 0.00323 s⁻¹ in experiment [8] and 0.0002 s⁻¹ in experiment [9]. Moreover, the kon in experiment [9] is 11200 M⁻¹ s⁻¹; in experiment [12] it was 2190 M⁻¹ s⁻¹. Moreover, the “retention shift” value in experiment [10] was determined as 0.5 min. In experiment [11], the “MW (MDa)” value was found to be 22.6 MDa.

B2: DecΔ20 (Dec lacking the first 20 N-terminal residues) (other)
chain: MGSSHHHHHHSQDPVSALPIKAIKYANDGSANAEFDGPYADQYMSAQTVAVFKPEVGGYLFRSQYGELLYMSKTAFEANYTSASGSVANAETADKLSTARTITLTGAVTGSASFDGSANVTIETTSGS
Turning to B2, the “fold reduction in KD from the high-affinity site of DecWT” value in experiment [13] was more than 300 fold. In [8], this molecule gave a Kd of 3450 nM and a koff of 0.00024 s⁻¹. This molecule also displayed a Kd in experiment [14] of 3500 nM.

B3: DecΔ11 (Dec lacking the first 11 N-terminal residues) (other)
chain: MGSSHHHHHHSQDPLYKDADGVYVSALPIKAIKYANDGSANAEFDGPYADQYMSAQTVAVFKPEVGGYLFRSQYGELLYMSKTAFEANYTSASGSVANAETADKLSTARTITLTGAVTGSASFDGSANVTIETTSGS
B3: the “Rh (nm)” value in experiment [5] came out at 30.1 nm. In addition, the koff in experiment [8] worked out at 0.0044 s⁻¹; in [15], 4.4e-05 s⁻¹. Also, the on-rate (kon) in experiment [8] was 9200 M⁻¹ s⁻¹; in experiment [12], 38300 M⁻¹ s⁻¹. Also, in experiment [10], the “retention shift” value came to 0.595 min. Besides, in experiment [11], the “MW (MDa)” value was 23.6 MDa.

B4: DecWT (other)
chain: MGSSHHHHHHSLVPRGSQDPMANPNFTPSWPLYKDADGVYVSALPIKAIKYANDGSANAEFDGPYADQYMSAQTVAVFKPEVGGYLFRSQYGELLYMSKTAFEANYTSASGSVANAETADKLSTARTITLTGAVTGSASFDGSANVTIETTSGS
notes: also called Dec with an N-terminal his-tag
As to B4, in experiment [5], the “Rh (nm)” value came to 29.6 nm. The Kd in experiment [7] came out at 1500 nM; in experiment [8], 446 nM; in experiment [18], 24 nM; in [20], 0.255 nM; in experiment [21], 9.2 nM. For the same molecule, the koff in experiment [7] was determined as 0.00298 s⁻¹; in experiment [8], 0.00182 s⁻¹; in [16] it was 0.00095 s⁻¹; in [17] it was 3.2e-06 s⁻¹; in experiment [18] it was 0.00033 s⁻¹; in [21], 0.000106 s⁻¹. Further, the kon in experiment [7] is 1980 M⁻¹ s⁻¹; in experiment [18], 13800 M⁻¹ s⁻¹; in experiment [21], 11500 M⁻¹ s⁻¹. For the same molecule, the “retention shift” value in experiment [10] amounted to 0.619 min. In [11], the “MW (MDa)” value came to 23 MDa. In addition, in experiment [19], the “half-life of binding at the tight-site” value is not below 60 h.

B5: DecmCD40L (Dec fused at its C-terminus to the soluble region of murine CD40L) (ligand)
chain: MGSSHHHHHHSQDPMANPNFTPSWPLYKDADGVYVSALPIKAIKYANDGSANAEFDGPYADQYMSAQTVAVFKPEVGGYLFRSQYGELLYMSKTAFEANYTSASGSVANAETADKLSTARTITLTGAVTGSASFDGSANVTIETTSGSELQRGDEDPQIAAHVVSEANSNAASVLQWAKKGYYTMKSNLVMLENGKQLTVKREGLYYVYTQVTFCSNREPSSQRPFIVGLWLKPSSGSERILLKAANTHSSSQLCEQQSVHLGGVFELQAGASVFVNVTEASQVIHRVGFSSFGLLKL
Turning to B5, the Kd stood at 1420 nM in experiment [7] and 30.8 nM in [9]. The figures for the koff in experiment [8] and in experiment [9] were 0.0068 s⁻¹ and 0.0002 s⁻¹, respectively. In addition, the kon in experiment [9] stood at 6440 M⁻¹ s⁻¹; in [12], 4820 M⁻¹ s⁻¹.
